Test results taken from patent US20260217813A1 (published 2026).

T1: IL-12 (Human IL12 (His Tag)), Sino Biological Cat. No. CT-050-H08H-20 (human, UniProt P29460 23-328; P29459 23-219)
T1 construct: Bought His-tagged p35/p40 heterodimer
T1 sequence (looked up) 1: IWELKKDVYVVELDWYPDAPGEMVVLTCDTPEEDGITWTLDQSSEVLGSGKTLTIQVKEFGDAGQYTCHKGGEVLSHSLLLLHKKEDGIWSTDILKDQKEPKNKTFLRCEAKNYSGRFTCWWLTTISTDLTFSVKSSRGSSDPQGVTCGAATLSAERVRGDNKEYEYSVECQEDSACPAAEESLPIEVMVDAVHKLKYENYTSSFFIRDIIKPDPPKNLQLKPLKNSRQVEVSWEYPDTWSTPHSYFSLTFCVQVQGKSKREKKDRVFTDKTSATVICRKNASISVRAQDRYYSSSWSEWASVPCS
T1 sequence (looked up) 2: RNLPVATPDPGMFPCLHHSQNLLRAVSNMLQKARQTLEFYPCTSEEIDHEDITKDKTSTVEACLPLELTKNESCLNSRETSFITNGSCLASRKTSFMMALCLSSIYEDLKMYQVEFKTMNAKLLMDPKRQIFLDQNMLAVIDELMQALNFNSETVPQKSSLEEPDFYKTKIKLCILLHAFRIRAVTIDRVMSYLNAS

T2: human IL-23 (IL-23-His-Biotin, Akesobio, 20161209) (human, UniProt Q9NPF7 20-189; P29460 23-328)
T2 construct: His-tagged and biotinylated; also called human IL23-His-Biotin
T2 sequence (looked up) 1: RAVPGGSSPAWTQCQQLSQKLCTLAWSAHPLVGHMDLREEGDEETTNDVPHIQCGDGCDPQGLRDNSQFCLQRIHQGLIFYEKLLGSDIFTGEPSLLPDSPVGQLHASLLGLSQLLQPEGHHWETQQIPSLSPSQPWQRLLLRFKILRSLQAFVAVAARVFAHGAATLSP
T2 sequence (looked up) 2: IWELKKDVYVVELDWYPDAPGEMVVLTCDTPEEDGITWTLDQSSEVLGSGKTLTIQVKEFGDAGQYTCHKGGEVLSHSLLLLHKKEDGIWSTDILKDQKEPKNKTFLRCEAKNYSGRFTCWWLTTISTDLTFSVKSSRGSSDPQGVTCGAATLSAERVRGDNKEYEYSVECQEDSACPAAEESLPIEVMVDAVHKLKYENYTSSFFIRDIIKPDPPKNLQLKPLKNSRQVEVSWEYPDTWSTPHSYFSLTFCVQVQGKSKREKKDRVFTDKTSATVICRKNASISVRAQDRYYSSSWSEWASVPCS


Key:
[1] = biological target: T1, IL-12 (Human IL12 (His Tag)), Sino …; assay: FACS competition, IL-12-His 20 nM on 293T-IL-12RB1&IL-23R cells, antibody 1.11 µg/mL
Description: (§1) 200 μL of 1% PBSA was added into each sample, and the mixture was centrifuged at 700×g for 5 min to discard the supernatant. According to experiment design, correspondingly diluted antibody (highest final concentration of 30 μg/mL, 3-fold dilution, 8 concentrations in total) and human IL-12 (Sino Biological, Cat. No.: CT-050-H08H-20) (final concentration of 20 nM) were mixed at a ratio of 1:1, and a blank control was set. The mixture of antibody and human IL12 was incubated on ice for 30 min and then added to the cell precipitate at 100 μL/sample. The resulting mixture was well mixed and incubated on ice for 60 min. 200 μL of 1% PBSA was added, and the mixture was centrifuged at 700×g for 5 min to discard the supernatant, and then washed twice. Alexa Fluor® 488 anti-His tag antibody (Biolegend, Cat. No.: 652509) was diluted at a ratio of 1:400 and added to each tube at 100 μL. The mixture was well mixed and incubated on ice for 40 min in the absence of light. 200 μL of 1% PBSA was added, and the mixture was centrifuged at 700×g for 5 min to discard the supernatant, and then washed twice. 1% PBSA was added at 200 μL/tube, and the cells were resuspended and transferred to a flow cytometry tube for testing.

[2] = biological target: T2, human IL-23 (IL-23-His-Biotin, …); assay: FACS competition, IL-23-His-Biotin 2 µg/mL on 293T-IL-12RB1&IL-23R cells, antibody 0.04 µg/mL
Description: (§2) 2.1. […] 200 μL of 1% PBSA was added into each sample, and the mixture was centrifuged at 700×g for 5 min to discard the supernatant. According to experiment design, correspondingly diluted antibody (highest final concentration of 30 μg/mL, 3-fold dilution, 8 concentrations in total) and human IL-23 (IL-23-His-Biotin, Akesobio, 20161209) (final concentration of 2 μg/mL) were mixed at a ratio of 1:1, and a blank control was set. The mixture of antibody and human IL23 was incubated on ice for 30 min and then added to the cell precipitate at 100 μL/sample. The resulting mixture was well mixed and incubated on ice for 60 min. 200 μL of 1% PBSA was added, and the mixture was centrifuged at 700×g for 5 min to discard the supernatant, and then washed twice. FITC Streptavidin (Biolegend, Cat. No.: 405202) was diluted at a ratio of 1:500 and added to each tube at 100 μL. The mixture was well mixed and incubated on ice for 40 min in the absence of light. 200 μL of 1% PBSA was added, and the mixture was centrifuged at 700×g for 5 min to discard the supernatant, and then washed twice. 1% PBSA was added at 200 μL/tube, and the cells were resuspended and transferred to a flow cytometry tube for testing.

[3] = biological target: T2, human IL-23 (IL-23-His-Biotin, …); assay: FACS competition, IL-23-His-Biotin 2 µg/mL on 293T-IL-12RB1&IL-23R cells, antibody 0.01 µg/mL
Description: as §2

[4] = biological target: T2, human IL-23 (IL-23-His-Biotin, …); assay: FACS competition, IL-23-His-Biotin 2 µg/mL on 293T-IL-12RB1&IL-23R cells, antibody 0.12 µg/mL
Description: as §2

[5] = biological target: T1, IL-12 (Human IL12 (His Tag)), Sino …; assay: FACS competition, IL-12-His 20 nM on 293T-IL-12RB1&IL-23R cells, antibody 0.37 µg/mL
Description: as §1

[6] = biological target: T2, human IL-23 (IL-23-His-Biotin, …); assay: FACS competition, IL-23-His-Biotin 2 µg/mL on 293T-IL-12RB1&IL-23R cells, antibody 30 µg/mL
Description: as §2

[7] = biological target: T2, human IL-23 (IL-23-His-Biotin, …); assay: FACS competition, IL-23-His-Biotin 2 µg/mL on 293T-IL-12RB1&IL-23R cells, antibody 0.37 µg/mL
Description: as §2

[8] = biological target: T2, human IL-23 (IL-23-His-Biotin, …); assay: FACS competition, IL-23-His-Biotin 2 µg/mL on 293T-IL-12RB1&IL-23R cells, antibody 1.11 µg/mL
Description: as §2

| MFI [1] | MFI [2] | MFI [3] | MFI [4] | MFI [5] | MFI [6] | MFI [7] | MFI [8] | Binder |
| --- | --- | --- | --- | --- | --- | --- | --- | --- |
| 157 | 221 | 222 | 217 | 159 | 104 | 206 | 184 | H5L9 (antibody, human IgG1, kappa, V domains shown, Humanized anti-human IL-12/IL-23 p40 antibody; IgG1 (P01857) / kappa (P01834) constant regions) VH: EVQLVQSGAEVKKPGESLKISCQSSGYSFTTYWIGWVRQMPGQGLEWIGIMSPVDSDIRYNPMFRGQVTMSVDKSSSTAYLQWSSLKASDTAMYYCARRRPGQGYFDFWGQGTMVTVSS VL: DIQMTQSPSSLSASVGDRVTITCKASQNVGSWLAWYQQKPGKAPKSLIYSASSRQSGVPSRFSGSGSGTDFTLTISSLQPEDFATYYCQQYDIYPFTFGQGTKLEIKR |
| 44.6 | 230 | 223 | 221 | 87.5 | 11.9 | 169 | 81.6 | H5L10 (antibody, human IgG1, kappa, V domains shown, IgG1/kappa) VH: EVQLVQSGAEVKKPGESLKISCQSSGYSFTTYWIGWVRQMPGQGLEWIGIMSPVDSDIRYNPMFRGQVTMSVDKSSSTAYLQWSSLKASDTAMYYCARRRPGQGYFDFWGQGTMVTVSS VL: EIVLTQSPATLSASPGERATISCRASQSVGSWLAWYQQKPGQAPRSLIYAASNLQSGIPARFSGSGSGTDFTLTISSLEPEDFAVYYCQQYNIYPYTFGQGTRLEIKR |
| 66 | 216 | 218 | 203 | 113 | 14.1 | 179 | 95.6 | H5L14 (antibody, human IgG1, kappa, V domains shown, IgG1/kappa) VH: EVQLVQSGAEVKKPGESLKISCQSSGYSFTTYWIGWVRQMPGQGLEWIGIMSPVDSDIRYNPMFRGQVTMSVDKSSSTAYLQWSSLKASDTAMYYCARRRPGQGYFDFWGQGTMVTVSS VL: EIVLTQSPATLSASPGERATISCRASQSVSSWLAWYQQKPGQAPRSLIYAASNLQSGIPARFSGSGSGTDFTLTISSLEPEDFAVYYCQQYNIYPFTFGQGTRLEIKR |
| 38.5 | 234 | 221 | 211 | 86.6 | 12.3 | 177 | 88.5 | H5L12 (antibody, human IgG1, kappa, V domains shown, IgG1/kappa) VH: EVQLVQSGAEVKKPGESLKISCQSSGYSFTTYWIGWVRQMPGQGLEWIGIMSPVDSDIRYNPMFRGQVTMSVDKSSSTAYLQWSSLKASDTAMYYCARRRPGQGYFDFWGQGTMVTVSS VL: EIVLTQSPATLSASPGERATISCRASQSVSSWLAWYQQKPGQAPRSLIYAASNRQSGIPARFSGSGSGTDFTLTISSLEPEDFAVYYCQQYNIYPYTFGQGTRLEIKR |
| 54.3 | 224 | 219 | 219 | 103 | 12.9 | 179 | 97.6 | H5L11 (antibody, human IgG1, kappa, V domains shown, IgG1/kappa) VH: EVQLVQSGAEVKKPGESLKISCQSSGYSFTTYWIGWVRQMPGQGLEWIGIMSPVDSDIRYNPMFRGQVTMSVDKSSSTAYLQWSSLKASDTAMYYCARRRPGQGYFDFWGQGTMVTVSS VL: EIVLTQSPATLSASPGERATISCRASQSVSSWLAWYQQKPGQAPRSLIYSASNLQSGIPARFSGSGSGTDFTLTISSLEPEDFAVYYCQQYNIYPYTFGQGTRLEIKR |
| 31.9 | 216 | 219 | 211 | 95.7 | 9.64 | 186 | 121 | ustekinumab (trade name Stelara) (antibody, V domains shown) VH: EVQLVQSGAEVKKPGESLKISCKGSGYSFTTYWLGWVRQMPGKGLDWIGIMSPVDSDIRYSPSFQGQVTMSVDKSITTAYLQWNSLKASDTAMYYCARRRPGQGYFDFWGQGTLVTVSS VL: DIQMTQSPSSLSASVGDRVTITCRASQGISSWLAWYQQKPEKAPKSLIYAASSLQSGVPSRFSGSGSGTDFTLTISSLQPEDFATYYCQQYNIYPYTFGQGTKLEIK |
